B1: De novo trastuzumab HCDR3 variant ARTGWGYDNISGYEY (SEQ ID NO: 497) (Fab, V domains shown)
VH: EVQLVESGGGLVQPGGSLRLSCAASGFNIKDTYIHWVRQAPGKGLEWVARIYPTNGYTRYADSVKGRFTISADTSKNTAYLQMNSLRAEDTAVYYCARTGWGYDNISGYEYWGQGTLVTVSS
VL: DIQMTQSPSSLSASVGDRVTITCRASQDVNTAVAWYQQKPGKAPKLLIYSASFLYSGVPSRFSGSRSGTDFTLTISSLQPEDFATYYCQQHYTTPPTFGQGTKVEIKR
B2: De novo trastuzumab HCDR3 variant ARYYGWYYYFDY (SEQ ID NO: 482) (Fab, V domains shown)
VH: EVQLVESGGGLVQPGGSLRLSCAASGFNIKDTYIHWVRQAPGKGLEWVARIYPTNGYTRYADSVKGRFTISADTSKNTAYLQMNSLRAEDTAVYYCARYYGWYYYFDYWGQGTLVTVSS
VL: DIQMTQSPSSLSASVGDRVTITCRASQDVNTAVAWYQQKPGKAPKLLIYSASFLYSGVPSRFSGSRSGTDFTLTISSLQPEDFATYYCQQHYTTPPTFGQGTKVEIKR
B3: De novo trastuzumab HCDR3 variant ARYLSDSYAWDY (SEQ ID NO: 490) (Fab, V domains shown)
VH: EVQLVESGGGLVQPGGSLRLSCAASGFNIKDTYIHWVRQAPGKGLEWVARIYPTNGYTRYADSVKGRFTISADTSKNTAYLQMNSLRAEDTAVYYCARYLSDSYAWDYWGQGTLVTVSS
VL: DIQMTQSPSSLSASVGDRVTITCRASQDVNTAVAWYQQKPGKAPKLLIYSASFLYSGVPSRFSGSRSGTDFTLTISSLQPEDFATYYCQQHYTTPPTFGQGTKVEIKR
B4: De novo trastuzumab HCDR3 variant ARGYGVGASFVY (SEQ ID NO: 496) (Fab, V domains shown)
VH: EVQLVESGGGLVQPGGSLRLSCAASGFNIKDTYIHWVRQAPGKGLEWVARIYPTNGYTRYADSVKGRFTISADTSKNTAYLQMNSLRAEDTAVYYCARGYGVGASFVYWGQGTLVTVSS
VL: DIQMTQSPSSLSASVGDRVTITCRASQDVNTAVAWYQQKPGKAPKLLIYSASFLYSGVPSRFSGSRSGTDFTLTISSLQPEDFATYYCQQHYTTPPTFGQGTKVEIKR
B5: De novo trastuzumab HCDR3 variant ARYHYSGFFMDA (SEQ ID NO: 489) (Fab, V domains shown)
VH: EVQLVESGGGLVQPGGSLRLSCAASGFNIKDTYIHWVRQAPGKGLEWVARIYPTNGYTRYADSVKGRFTISADTSKNTAYLQMNSLRAEDTAVYYCARYHYSGFFMDAWGQGTLVTVSS
VL: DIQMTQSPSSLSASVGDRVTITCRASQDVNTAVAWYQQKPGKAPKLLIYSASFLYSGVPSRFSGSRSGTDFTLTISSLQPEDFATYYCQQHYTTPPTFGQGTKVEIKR
B6: De novo trastuzumab HCDR3 variant ASDRYGSYSLVS (SEQ ID NO: 480) (Fab, V domains shown)
VH: EVQLVESGGGLVQPGGSLRLSCAASGFNIKDTYIHWVRQAPGKGLEWVARIYPTNGYTRYADSVKGRFTISADTSKNTAYLQMNSLRAEDTAVYYCASDRYGSYSLVSWGQGTLVTVSS
VL: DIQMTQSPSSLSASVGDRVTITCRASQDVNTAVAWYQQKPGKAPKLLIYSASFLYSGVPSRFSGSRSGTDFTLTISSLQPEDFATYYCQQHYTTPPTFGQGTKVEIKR
B7: De novo trastuzumab HCDR3 variant ARLYYSSFNGM (SEQ ID NO: 485) (Fab, V domains shown)
VH: EVQLVESGGGLVQPGGSLRLSCAASGFNIKDTYIHWVRQAPGKGLEWVARIYPTNGYTRYADSVKGRFTISADTSKNTAYLQMNSLRAEDTAVYYCARLYYSSFNGMWGQGTLVTVSS
VL: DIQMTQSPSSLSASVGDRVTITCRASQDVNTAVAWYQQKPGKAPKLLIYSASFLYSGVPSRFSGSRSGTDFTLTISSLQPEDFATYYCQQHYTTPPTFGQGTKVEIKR
B8: De novo trastuzumab HCDR3 variant AVEGGTRALEP (SEQ ID NO: 483) (Fab, V domains shown)
VH: EVQLVESGGGLVQPGGSLRLSCAASGFNIKDTYIHWVRQAPGKGLEWVARIYPTNGYTRYADSVKGRFTISADTSKNTAYLQMNSLRAEDTAVYYCAVEGGTRALEPWGQGTLVTVSS
VL: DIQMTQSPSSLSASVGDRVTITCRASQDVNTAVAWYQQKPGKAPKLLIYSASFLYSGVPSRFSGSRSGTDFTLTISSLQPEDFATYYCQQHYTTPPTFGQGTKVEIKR
B9: De novo trastuzumab HCDR3 variant TRRDFGYYMAY (SEQ ID NO: 494) (Fab, V domains shown)
VH: EVQLVESGGGLVQPGGSLRLSCAASGFNIKDTYIHWVRQAPGKGLEWVARIYPTNGYTRYADSVKGRFTISADTSKNTAYLQMNSLRAEDTAVYYCTRRDFGYYMAYWGQGTLVTVSS
VL: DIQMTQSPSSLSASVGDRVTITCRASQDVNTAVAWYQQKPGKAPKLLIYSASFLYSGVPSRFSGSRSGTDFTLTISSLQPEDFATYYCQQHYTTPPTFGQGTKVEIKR
B10: De novo trastuzumab HCDR3 variant ARYAGVERPGSFAY (SEQ ID NO: 43) (Fab, V domains shown)
VH: EVQLVESGGGLVQPGGSLRLSCAASGFNIKDTYIHWVRQAPGKGLEWVARIYPTNGYTRYADSVKGRFTISADTSKNTAYLQMNSLRAEDTAVYYCARYAGVERPGSFAYWGQGTLVTVSS
VL: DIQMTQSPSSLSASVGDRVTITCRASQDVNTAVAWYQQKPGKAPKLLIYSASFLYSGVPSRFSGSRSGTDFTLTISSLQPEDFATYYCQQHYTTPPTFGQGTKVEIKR
B11: De novo trastuzumab HCDR3 variant ARGYAYYVAGREY (SEQ ID NO: 493) (Fab, V domains shown)
VH: EVQLVESGGGLVQPGGSLRLSCAASGFNIKDTYIHWVRQAPGKGLEWVARIYPTNGYTRYADSVKGRFTISADTSKNTAYLQMNSLRAEDTAVYYCARGYAYYVAGREYWGQGTLVTVSS
VL: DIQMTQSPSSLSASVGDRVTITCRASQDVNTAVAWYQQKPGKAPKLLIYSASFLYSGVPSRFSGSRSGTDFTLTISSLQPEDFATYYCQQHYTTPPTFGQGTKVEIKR
B12: De novo trastuzumab HCDR3 variant AYMGSHTIYSFEH (SEQ ID NO: 479) (Fab, V domains shown)
VH: EVQLVESGGGLVQPGGSLRLSCAASGFNIKDTYIHWVRQAPGKGLEWVARIYPTNGYTRYADSVKGRFTISADTSKNTAYLQMNSLRAEDTAVYYCAYMGSHTIYSFEHWGQGTLVTVSS
VL: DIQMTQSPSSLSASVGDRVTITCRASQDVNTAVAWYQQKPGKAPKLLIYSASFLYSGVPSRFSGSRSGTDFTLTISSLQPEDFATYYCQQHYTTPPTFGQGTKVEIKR
B13: De novo trastuzumab HCDR3 variant VRSGYDYYSWFAY (SEQ ID NO: 492) (Fab, V domains shown)
VH: EVQLVESGGGLVQPGGSLRLSCAASGFNIKDTYIHWVRQAPGKGLEWVARIYPTNGYTRYADSVKGRFTISADTSKNTAYLQMNSLRAEDTAVYYCVRSGYDYYSWFAYWGQGTLVTVSS
VL: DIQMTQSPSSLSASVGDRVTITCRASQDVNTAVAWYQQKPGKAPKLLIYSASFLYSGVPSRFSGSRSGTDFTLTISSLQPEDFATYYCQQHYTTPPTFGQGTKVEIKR
B14: De novo trastuzumab HCDR3 variant ATGLSPSGSNGPY (SEQ ID NO: 491) (Fab, V domains shown)
VH: EVQLVESGGGLVQPGGSLRLSCAASGFNIKDTYIHWVRQAPGKGLEWVARIYPTNGYTRYADSVKGRFTISADTSKNTAYLQMNSLRAEDTAVYYCATGLSPSGSNGPYWGQGTLVTVSS
VL: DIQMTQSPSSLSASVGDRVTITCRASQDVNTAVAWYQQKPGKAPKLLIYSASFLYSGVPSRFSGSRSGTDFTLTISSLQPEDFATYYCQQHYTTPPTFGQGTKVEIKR
B15: De novo trastuzumab HCDR3 variant ARSNNWYSYSFQF (SEQ ID NO: 478) (Fab, V domains shown)
VH: EVQLVESGGGLVQPGGSLRLSCAASGFNIKDTYIHWVRQAPGKGLEWVARIYPTNGYTRYADSVKGRFTISADTSKNTAYLQMNSLRAEDTAVYYCARSNNWYSYSFQFWGQGTLVTVSS
VL: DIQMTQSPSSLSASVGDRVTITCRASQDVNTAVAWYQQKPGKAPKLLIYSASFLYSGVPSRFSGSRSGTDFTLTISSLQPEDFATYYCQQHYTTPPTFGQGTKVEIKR
B16: De novo trastuzumab HCDR3 variant ARLGASHGYLYDD (SEQ ID NO: 484) (Fab, V domains shown)
VH: EVQLVESGGGLVQPGGSLRLSCAASGFNIKDTYIHWVRQAPGKGLEWVARIYPTNGYTRYADSVKGRFTISADTSKNTAYLQMNSLRAEDTAVYYCARLGASHGYLYDDWGQGTLVTVSS
VL: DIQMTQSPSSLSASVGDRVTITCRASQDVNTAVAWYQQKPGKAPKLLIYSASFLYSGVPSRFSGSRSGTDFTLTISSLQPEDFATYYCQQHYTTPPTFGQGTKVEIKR
B17: De novo trastuzumab HCDR3 variant ARNYYGAAYYFDY (SEQ ID NO: 495) (Fab, V domains shown)
VH: EVQLVESGGGLVQPGGSLRLSCAASGFNIKDTYIHWVRQAPGKGLEWVARIYPTNGYTRYADSVKGRFTISADTSKNTAYLQMNSLRAEDTAVYYCARNYYGAAYYFDYWGQGTLVTVSS
VL: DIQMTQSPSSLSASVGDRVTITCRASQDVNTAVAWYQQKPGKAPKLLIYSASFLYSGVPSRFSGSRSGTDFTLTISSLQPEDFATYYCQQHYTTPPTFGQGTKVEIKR
B18: De novo trastuzumab HCDR3 variant ATSGTASWQHYGV (SEQ ID NO: 481) (Fab, V domains shown)
VH: EVQLVESGGGLVQPGGSLRLSCAASGFNIKDTYIHWVRQAPGKGLEWVARIYPTNGYTRYADSVKGRFTISADTSKNTAYLQMNSLRAEDTAVYYCATSGTASWQHYGVWGQGTLVTVSS
VL: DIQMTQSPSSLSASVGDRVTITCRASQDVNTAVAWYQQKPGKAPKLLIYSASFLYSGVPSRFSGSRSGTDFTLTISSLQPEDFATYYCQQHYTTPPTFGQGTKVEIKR
B19: De novo trastuzumab HCDR3 variant ARYHYRTIGSFGY (SEQ ID NO: 487) (Fab, V domains shown)
VH: EVQLVESGGGLVQPGGSLRLSCAASGFNIKDTYIHWVRQAPGKGLEWVARIYPTNGYTRYADSVKGRFTISADTSKNTAYLQMNSLRAEDTAVYYCARYHYRTIGSFGYWGQGTLVTVSS
VL: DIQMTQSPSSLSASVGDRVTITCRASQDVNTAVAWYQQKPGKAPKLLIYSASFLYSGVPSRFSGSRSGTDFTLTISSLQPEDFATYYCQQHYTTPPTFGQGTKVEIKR
B20: De novo trastuzumab HCDR3 variant AWASGYGGYGMDY (SEQ ID NO: 488) (Fab, V domains shown)
VH: EVQLVESGGGLVQPGGSLRLSCAASGFNIKDTYIHWVRQAPGKGLEWVARIYPTNGYTRYADSVKGRFTISADTSKNTAYLQMNSLRAEDTAVYYCAWASGYGGYGMDYWGQGTLVTVSS
VL: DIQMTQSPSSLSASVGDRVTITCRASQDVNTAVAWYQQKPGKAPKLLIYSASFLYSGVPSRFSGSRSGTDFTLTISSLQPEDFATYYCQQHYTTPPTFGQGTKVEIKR
B21: AI Design 7 (multi-step AI designed trastuzumab variant, native HCDR1) (Fab, V domains shown)
VH: EVQLVESGGGLVQPGGSLRLSCAASGFNIKDTYIHWVRQAPGKGLEWVARIDPANGYTRYADSVKGRFTISADTSKNTAYLQMNSLRAEDTAVYYCARVGGRGYYYYDYWGQGTLVTVSS
VL: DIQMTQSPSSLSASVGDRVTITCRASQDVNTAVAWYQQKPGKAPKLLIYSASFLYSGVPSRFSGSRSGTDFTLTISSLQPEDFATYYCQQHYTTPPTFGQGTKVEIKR
notes: Fab format; also called GFNIKDTY / IDPANGYT / ARVGGRGYYYYDY
B22: AI Design 3 (multi-step AI designed trastuzumab HCDR1/2/3 variant) (Fab, V domains shown)
VH: EVQLVESGGGLVQPGGSLRLSCAASGFNIKDYYIHWVRQAPGKGLEWVARIYPSRGYTRYADSVKGRFTISADTSKNTAYLQMNSLRAEDTAVYYCARHGSEGRYTMDVWGQGTLVTVSS
VL: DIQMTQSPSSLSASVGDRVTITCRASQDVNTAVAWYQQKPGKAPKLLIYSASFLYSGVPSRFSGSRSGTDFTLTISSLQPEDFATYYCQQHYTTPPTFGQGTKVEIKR
notes: Fab format; also called GFNIKDYY / IYPSRGYT / ARHGSEGRYTMDV
B23: AI Design 2 (multi-step AI designed trastuzumab HCDR1/2/3 variant) (Fab, V domains shown)
VH: EVQLVESGGGLVQPGGSLRLSCAASGFNISDYYIHWVRQAPGKGLEWVARIYPSSGYTRYADSVKGRFTISADTSKNTAYLQMNSLRAEDTAVYYCARDGGVGSYSMDVWGQGTLVTVSS
VL: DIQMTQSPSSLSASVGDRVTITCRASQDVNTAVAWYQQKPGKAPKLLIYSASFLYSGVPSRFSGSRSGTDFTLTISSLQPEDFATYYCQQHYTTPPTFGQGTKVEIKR
notes: Fab format; also called GFNISDYY / IYPSSGYT / ARDGGVGSYSMDV

biological target: human epidermal growth factor receptor 2 (HER2) extracellular domain (human, UniProt P04626 23-629); assay: SPR, Fab format

Question: Which Kd does the source give for B1 here?
Answer: Its Kd is 1460 nM.

Question: And the “log(KD (M))” value?
Answer: The value was -5.84 log M.

Question: What does the source list for B2?
Answer: Kd: 323 nM; log(KD (M)): -6.49 log M

Question: What does the source list for B3?
Answer: Kd: 434 nM; log(KD (M)): -6.36 log M

Question: Which Kd does the source give for B4 here?
Answer: The Kd was 630 nM.

Question: And the “log(KD (M))” value?
Answer: Its value is -6.2 log M.

Question: What does the source list for B5?
Answer: Kd: 433 nM; log(KD (M)): -6.36 log M

Question: Which results are given for B6?
Answer: Kd: 314 nM; log(KD (M)): -6.5 log M

Question: Which Kd does the source give for B7 here?
Answer: Its Kd is 339 nM.

Question: What about the “log(KD (M))” value of the same binder?
Answer: Its value is -6.47 log M.

Question: For B8, which Kd is on record?
Answer: The Kd was 326 nM.

Question: What about the “log(KD (M))” value of the same binder?
Answer: Its value is -6.49 log M.

Question: For B9, which Kd is on record?
Answer: Its Kd is 547 nM.

Question: And the “log(KD (M))” value?
Answer: Its value is -6.26 log M.

Question: For B10, which Kd is on record?
Answer: Its Kd is 574 nM.

Question: What about the “log(KD (M))” value of the same binder?
Answer: Its value is -6.24 log M.

Question: What does the source list for B11?
Answer: Kd: 496 nM; log(KD (M)): -6.3 log M

Question: What does the source list for B12?
Answer: Kd: 301 nM; log(KD (M)): -6.52 log M

Question: How did the Kd turn out when B13 was run?
Answer: The Kd was 465 nM.

Question: What about the “log(KD (M))” value of the same binder?
Answer: Its value is -6.33 log M.

Question: B14 was tested. Which Kd did it give?
Answer: The Kd was 444 nM.

Question: And the “log(KD (M))” value?
Answer: Its value is -6.35 log M.

Question: B15 was tested. Which Kd did it give?
Answer: The Kd was 278 nM.

Question: And the “log(KD (M))” value?
Answer: Its value is -6.56 log M.

Question: How did the Kd turn out when B16 was run?
Answer: Its Kd is 328 nM.

Question: And the “log(KD (M))” value?
Answer: Its value is -6.48 log M.

Question: For B17, which Kd is on record?
Answer: Its Kd is 570 nM.

Question: And the “log(KD (M))” value?
Answer: The value was -6.24 log M.

Question: With B18 as the binder, how does the Kd read?
Answer: The Kd was 322 nM.

Question: And the “log(KD (M))” value?
Answer: Its value is -6.49 log M.

Question: What does the source list for B19?
Answer: Kd: 367 nM; log(KD (M)): -6.44 log M

Question: How did the Kd turn out when B20 was run?
Answer: The Kd was 368 nM.

Question: And the “log(KD (M))” value?
Answer: Its value is -6.43 log M.

biological target: human epidermal growth factor receptor 2 (HER2) extracellular domain (human, UniProt P04626 23-629); assay: SPR

Question: How did the Kd turn out when B21 was run?
Answer: The Kd was 134 nM.

Question: Which Kd does the source give for B22 here?
Answer: Its Kd is 192 nM.

Question: How did the Kd turn out when B23 was run?
Answer: The Kd was 1320 nM.
